In article doi:10.1101/2020.06.24.169508:

Biological target: Vibrio campbellii chitoporin VhChiP, wild type (Vibrio campbellii (formerly Vibrio harveyi) BAA-1116)
Assay: SEC

How did the stoichiometry N turn out when “Vibrio campbellii chitoporin VhChiP, wild type (natural protein)” was run?
Its stoichiometry N is 3.
